In paper PMC12124358 (Science Advances, 2025):

Biological target: Clr4 lysine methyltransferase (KMT) domain (residues 192 to 490) (S. pombe, UniProt O60016 192-490)
Experiment: ITC

Sequence of Clr4 lysine methyltransferase (KMT) domain (residues 192 to 490) (O60016 192-490): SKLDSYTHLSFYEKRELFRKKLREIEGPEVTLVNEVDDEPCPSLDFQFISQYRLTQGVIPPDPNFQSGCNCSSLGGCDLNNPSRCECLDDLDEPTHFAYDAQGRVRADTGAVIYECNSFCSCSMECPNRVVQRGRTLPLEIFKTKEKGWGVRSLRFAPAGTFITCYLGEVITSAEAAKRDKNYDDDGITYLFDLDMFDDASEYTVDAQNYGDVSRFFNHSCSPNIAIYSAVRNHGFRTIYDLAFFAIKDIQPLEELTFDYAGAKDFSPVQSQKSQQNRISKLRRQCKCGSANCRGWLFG

Kd: 133 ± 13 µM
B1: H3(1–20)_([change])-Ub_([change]), disulfide bond-linked ubiquitinated H3 tail (other)
chain 1: ARTKQTARKSTGGCAPRKQL
chain 2: […]
